What is called Tm is the temperature at which the thermal transition is half complete.

For the data set the following is noted: Saccharolobus solfataricus (strain ATCC 35092 / DSM 1617 / JCM 11322 / P2), Thermal, CD, phosphate 10 mM, reversible: yes, whole UniProt chain shown.

B1: DNA-binding protein 7d wild type, P39476 (protein)
chain: MATVKFKYKGEEKEVDISKIKKVWRVGKMISFTYDEGGGKTGRGAVSEKDAPKELLQMLEKQKK
Regarding B1, the Tm was 80 °C (pH 3); 95 °C (pH 4); 98.5 °C (pH 5); 99 °C (pH 6); 98 °C (pH 7); 97.5 °C (pH 8). For the setting “pH 9”, the Tm worked out at 97 °C. The “unfolding enthalpy (van 't Hoff)” value was 50.2 kcal/mol (pH 3); 57.4 kcal/mol (pH 4); 62.1 kcal/mol (pH 5); 64.5 kcal/mol (pH 6); 64.5 kcal/mol (pH 7); 62.1 kcal/mol (pH 8). Besides, the “unfolding enthalpy (van 't Hoff)” value (pH 9) is 59.8 kcal/mol.

For the origin of these results see FireProtDB (doi:10.1021/bi034520t).
